In general, Km refers to the concentration of substrate that gives half-maximal velocity. One may read the kcat as the maximal rate divided by the concentration of active sites. Broadly, the kcat/Km is the second-order rate constant that governs catalysis at low substrate concentration.

The target in data set [1] is T1, 3-deoxy-D-arabino-heptulosonate 7-phosphate synthase (MtuDAH7PS) (Mycobacterium tuberculosis, UniProt O53512).
T1 construct: gene aroG; chain length 464 residues, homotetramer
Description: X-ray crystal structure (with D/L-Trp). The data set is classed as binding.

Data set [2] concerns C=C(OP(=O)(O)O)C(=O)O. Nature of the data set: purified protein.

T1 sequence (O53512 whole entry): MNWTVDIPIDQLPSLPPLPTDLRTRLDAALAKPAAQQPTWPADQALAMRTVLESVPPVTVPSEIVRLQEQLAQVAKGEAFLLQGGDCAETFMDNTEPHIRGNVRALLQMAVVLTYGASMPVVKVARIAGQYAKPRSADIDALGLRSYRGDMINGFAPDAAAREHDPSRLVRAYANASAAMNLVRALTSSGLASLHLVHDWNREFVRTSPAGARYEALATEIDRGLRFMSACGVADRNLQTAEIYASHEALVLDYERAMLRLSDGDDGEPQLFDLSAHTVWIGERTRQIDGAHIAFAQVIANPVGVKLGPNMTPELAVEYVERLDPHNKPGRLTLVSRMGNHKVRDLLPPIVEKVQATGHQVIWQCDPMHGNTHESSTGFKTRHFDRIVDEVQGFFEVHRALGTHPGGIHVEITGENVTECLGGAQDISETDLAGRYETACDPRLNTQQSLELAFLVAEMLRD

Take `N[C@@H](Cc1ccccc1)C(=O)O` [L-Phe]: the “X-ray crystal structure (with D/L-Trp)” value in data set [1] is “The Phe site in the structure obtained from these soaking conditions is occupied by L-Phe”.
Turning to “3-deoxy-D-arabino-heptulosonate 7-phosphate synthase (MtuDAH7PS) (Mycobacterium tuberculosis H37Rv)”, in data set [2], the Km is 37 ± 4 µM, the kcat was 4.7 ± 0.1 s⁻¹ and the kcat/Km is 130000 ± 20000 M⁻¹ s⁻¹.

(Values after PMC4851294 (PLoS ONE, 2016).)
